We go through one substance from PMC3258126.

One may read the Kd as the equilibrium constant for the complex coming apart. Higher therefore signals a looser complex.

The subject of this data set is rP20 WT (Bamboo mosaic virus satellite RNA (satBaMV, clone pBSF4)). Briefly: EMSA. (In EMSA bound probe runs differently from free probe, usually more slowly.)

The substance WT satBaMV RNA transcript had a Kd of 31 nM. This lies in the double-digit nanomolar range.
